Experiments:
[1] = biological target: T1, CLL2 ROR1high (human, UniProt Q01973); test: flow cytometry, cells stained at 4 C, ahFc-DyLight647
T1 construct: on the cell surface; also called ROR1 on primary CLL cells with high ROR1
Method: FIG. 9A-FIG. 9C: Internalisation of ROR1 MAbs on SKW 6.4 GFP and CLL cells by flow cytometry. Cells were stained at 4° C. and either left on ice or incubated at 37° C. for 15 min, 1 h and 2 h. Cells were then analysed using an anti-human IgG as secondary antibody. FIG. 9A-FIG. 9B: Histograms and FIG. 9C: Trends over time showing the MFI reduction over time are presented. The % of MFI reduction was calculated as described in the Materials and Methods chapter. Phenylarsine oxide (PAO), an endocytosis inhibitor, acted as negative control (PAO-120).
To distinguish between dissociation and internalisation, SKW 6.4 cells were incubated on ice in the presence of our selected antibodies for 30 min. Cells were then washed with ice-cold PBS and either left on ice or incubated at 37° C. for 15 min, 1 h or 2 h. For the 2 h time point, a duplicate sample was incubated with PAO (10 μM). Immediately after incubation, all samples were washed with ice-cold PBS and stained with an anti-human Fc-Dylight 647 for 30 min. Cells were analysed by flow cytometry and MFI reduction was calculated.
Samples were processed as mentioned above and analysed by flow cytometry. […] This was even clearer on CLL cells, where virtually no internalisation of clone V was detected.

[2] = biological target: T2, ROR1, full extracellular region, on transduced SUP-T1 cells (UniProt Q01973 30-406); test: flow cytometry, transduced SUP-T1 cells, anti-human Fc-Dylight647
T2 construct: extracellular domain; also called eROR1; extracellular ROR1
Method: (§1) FIG. 1A-FIG. 1C: Identification of ROR1 binding domain: FIG. 1A: SUP-T1 cells were transduced with retroviral vectors containing either the full extracellular portion of ROR1 or only one or two extracellular domains. Non-transduced SUP-T1 (SUP-T1 NT) cells served as negative control. FIG. 1B: All 12 chimeric antibodies and FIG. 1C all 10 positive clones in scFv format were incubated with SUP-T1 NT and the new stable cell lines at 4° C. for 30 min. Cells were washed and stained with a secondary antibody (anti-human Fc-Dylight647), which was used as negative control. eROR1=extracellular ROR1, Ig-like=Immunoglobulin-like domain, Fz=Frizzled domain, Kg=Kringle domain.

[3] = biological target: T3, ROR1 Frizzled domain alone, on transduced SUP-T1 cells (human, UniProt Q01973 165-299); test: as above
T3 construct: domain: Fz; also called Fz; ROR1-Fz domain
Method: as §1

[4] = biological target: T4, ROR1 Ig-like+Frizzled (Fz) domains, on transduced SUP-T1 cells (UniProt Q01973 30-299, limits assumed); test: as above
T4 construct: domain: Ig-like+Frizzled (Fz); also called Ig-Fz protein
Method: as §1

[5] = biological target: T5, Kringle (Kg) (human, UniProt Q01973); test: as above
T5 construct: also called ROR1 Kringle domain alone, on transduced SUP-T1 cells
Method: as §1

[6] = biological target: T6, ROR1 Ig-like domain alone, on transduced SUP-T1 cells (human, UniProt Q01973 30-147, limits assumed); test: as above
T6 construct: domain: Ig-like; also called immunoglobulin domain
Method: as §1

[7] = biological target: T7, Fz+Kg (human, UniProt Q01973); test: as above
T7 construct: also called ROR1 Frizzled+Kringle domains, on transduced SUP-T1 cells
Method: as §1

[8] = biological target: T8, SKW 6.4 GFP (human, UniProt Q01973); test: flow cytometry, SKW 6.4 GFP cells stained at 4 C, anti-human Fc-Dylight 647
T8 construct: on the cell surface; also called ROR1 endogenously expressed on SKW 6.4 cells
Method: FIG. 8A-FIG. 8C: Internalisation of ROR1 antibodies on SKW 6.4 GFP cells by flow cytometry. SKW 6.4 GFP cells were stained at 4° C. and either kept on ice (blue line) or incubated at 37° C. (yellow line) for 1 h. […] Clones A, F and Mu (purple circle) were selected for further investigation. Clones R12 and 4a5 (in black) served as negative and positive control, respectively. Anti-human Fc-Dylight 647 was used as secondary antibody and as staining control (red line). MFI=Median Fluorescence Intensity.
After 30 min, cells were washed with ice-cold PBS, and either left on ice or incubated at 37° C. for 1 h. Subsequent staining with an anti-human Fc-Dylight 647 was used to detect any primary antibody that had remained on the cell surface. Previously reported clones R12 and 4a5 were also included in this assay as negative and positive controls, respectively (FIG. 8).

[9] = biological target: T9, Histidine-tagged ROR1 protein (extracellular region) (UniProt Q01973 30-406); test: SPR, Biacore X100; antibody captured by anti-human IgG1 on CM5 chip, His-tagged ROR1 extracellular portion injected at 1.5-100 nM
T9 construct: extracellular domain; also called extracellular portion of ROR1 bearing a Histidine tag; not shown: Histidine tag
Method: FIG. 3: KD determination by surface plasmon resonance. Sensorgrams obtained using a Biacore X100 instrument are shown. Briefly, ROR1 antibodies were immobilized using a CM5 chip and seven different concentrations of the Histidine-tagged ROR1 protein (extracellular region) were injected. Concentrations ranged from […].
We undertook surface plasmon resonance evaluation using a Biacore X100 instrument. ROR1 chimeric antibodies were immobilised using an anti-human IgG1 antibody capture kit and a CM5 sensor chip. Seven different concentrations, ranging from 1.5-100 nM, of the extracellular portion of ROR1 bearing a Histidine tag were then injected.

[10] = biological target: T2, ROR1, full extracellular region, on …; test: flow cytometry, ROR1-transduced cells, single staining; Q1 = ahFc+ only; amFc+ahFc alone Q1 0.060
From the text: FIG. 7A-FIG. 7C: Competition assay by flow cytometry. Clone A (SA1) in murine IgG2a, k (mSA1) along with other ROR1 MAbs in human IgG1, k-including previously published 4a5, D10 and R12 clones—were used for staining ROR1-transduced cells. MAb staining was done as FIG. 7A-FIG. 7B: single agents or FIG. 7C: in combination with clone A (mSA1). Anti-human IgG (450) and anti-mouse IgG (DyLight649) were used as secondary antibodies. Combined staining using clones F and mSA1 acted as negative control for overlapping epitopes.
In FIG. 7C, three different columns are presented. Dot plots on the first column correspond to ROR1 binding assessed when SUP-T1 ROR1 cells were stained with clone A (SA1) (mIgG) in the first instance. After a washing step, cells were stained with a competitor antibody (hIgG), followed by another washing step. Both antibodies were then detected by a third staining step using the appropriate secondary antibodies. In the second column, a similar approach was taken when staining these cells, except that this time it was the antibody in hIgG1, k format the one used for the first staining step, followed by clone A (SA1) staining. On the third column, both antibodies were used at the same time.

[11] = biological target: Q(261)H mutation (human, UniProt Q01973); test: flow cytometry, Q(261)H-transduced SUP-T1 cells (eGFP), DyLight647
Method: FIG. 6A-FIG. 6D: Epitope mapping of ROR1 clone F MAb. FIG. 6A-FIG. 6B: Reactivity of clone F with ROR1-derived overlapping peptides was analyzed by ELISA. Since no linear epitope was identified, FIG. 6C-FIG. 6D: amino acid substitution of non-conserved regions within the Fz domain was performed in ROR1-Fz transduced cell lines. Circles indicate essential amino acids for antibody binding. One out of three experiments is shown. Experiments were done in triplicates. Error bars represent SD.
(§2) Retroviral vectors were used for transducing SUP-T1 cells and transduction was tested by GFP expression using flow cytometry.

[12] = biological target: T10, ROR1 Fz domain with Q(261)H and I(254)V, on transduced SUP-T1 cells (human, UniProt Q01973 165-299); test: flow cytometry on SUP-T1 cells transduced with mutated ROR1 Fz domain
T10 construct: domain: Fz

[13] = biological target: T11, I(48)Q mutation (human, UniProt Q01973); test: flow cytometry, I(48)Q-transduced cells (eGFP), DyLight647
T11 construct: The text speaks of the Ig-like domain; the axis on sheet D00010 reads ROR1 Ig-like+Fz+Kg; also called ROR1 with I(48)Q in the Ig-like domain, on transduced SUP-T1 cells
Method: FIG. 5A-FIG. 5H: Epitope mapping of ROR1 clone A MAb. FIG. 5A-FIG. 5B: Reactivity of clone A with ROR1-derived overlapping peptides was analyzed by ELISA. FIG. 5C-FIG. 5H: Amino acid substitution within the epitope binding region was performed in ROR1-transduced cell lines. Also, the previously described clones R12, 4a5 and D10 were also included for comparison. Red circles indicate essential amino acids for antibody binding. One out of three experiments is shown. Experiments were done in triplicates. Error bars represent SD.
as §2

[14] = biological target: T12, ROR1 Ig-like domain with NISSE at residues 47 to 51 replaced by FQDDL, on transduced SUP-T1 cells (human, UniProt Q01973 30-147, limits assumed); test: flow cytometry on SUP-T1 cells transduced with mutated ROR1 Ig-like domain
T12 construct: domain: Ig-like; also called five amino acid substitution
T12 sequence (Q01973 other isoform, or with tags, fused parts or gaps limits assumed): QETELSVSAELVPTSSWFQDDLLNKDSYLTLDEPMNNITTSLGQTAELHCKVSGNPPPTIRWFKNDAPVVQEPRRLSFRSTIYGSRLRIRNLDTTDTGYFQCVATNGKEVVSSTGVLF

T3 sequence (Q01973 165-299): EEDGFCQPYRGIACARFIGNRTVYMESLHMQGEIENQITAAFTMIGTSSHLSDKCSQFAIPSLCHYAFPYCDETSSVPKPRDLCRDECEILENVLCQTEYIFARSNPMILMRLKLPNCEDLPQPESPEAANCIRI
T7 sequence (Q01973 165-391 limits assumed): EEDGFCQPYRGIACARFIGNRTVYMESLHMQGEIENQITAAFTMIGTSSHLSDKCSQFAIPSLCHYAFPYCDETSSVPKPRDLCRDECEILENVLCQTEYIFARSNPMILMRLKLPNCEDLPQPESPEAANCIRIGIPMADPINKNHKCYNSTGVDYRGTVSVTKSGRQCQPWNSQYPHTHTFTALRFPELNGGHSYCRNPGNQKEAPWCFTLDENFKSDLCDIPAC
T2 sequence (Q01973 30-406): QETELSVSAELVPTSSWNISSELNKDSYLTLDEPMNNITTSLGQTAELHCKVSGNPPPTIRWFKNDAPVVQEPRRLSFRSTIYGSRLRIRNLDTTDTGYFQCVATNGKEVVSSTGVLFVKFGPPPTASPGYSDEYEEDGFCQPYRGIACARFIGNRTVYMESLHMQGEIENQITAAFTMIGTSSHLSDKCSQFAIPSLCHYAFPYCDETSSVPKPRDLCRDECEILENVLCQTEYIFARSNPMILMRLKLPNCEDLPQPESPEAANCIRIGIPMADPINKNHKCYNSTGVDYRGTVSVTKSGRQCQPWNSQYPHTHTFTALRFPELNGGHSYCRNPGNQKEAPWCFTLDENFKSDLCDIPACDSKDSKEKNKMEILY
T9 sequence (Q01973 30-406): as above
T6 sequence (Q01973 30-147 limits assumed): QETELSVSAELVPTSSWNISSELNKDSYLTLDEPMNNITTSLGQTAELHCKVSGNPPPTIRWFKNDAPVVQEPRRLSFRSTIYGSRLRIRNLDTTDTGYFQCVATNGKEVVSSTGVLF
T5 sequence (Q01973 312-391 limits assumed): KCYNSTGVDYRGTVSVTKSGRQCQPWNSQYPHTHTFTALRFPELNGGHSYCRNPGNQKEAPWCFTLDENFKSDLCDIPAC
T4 sequence (Q01973 30-299 limits assumed): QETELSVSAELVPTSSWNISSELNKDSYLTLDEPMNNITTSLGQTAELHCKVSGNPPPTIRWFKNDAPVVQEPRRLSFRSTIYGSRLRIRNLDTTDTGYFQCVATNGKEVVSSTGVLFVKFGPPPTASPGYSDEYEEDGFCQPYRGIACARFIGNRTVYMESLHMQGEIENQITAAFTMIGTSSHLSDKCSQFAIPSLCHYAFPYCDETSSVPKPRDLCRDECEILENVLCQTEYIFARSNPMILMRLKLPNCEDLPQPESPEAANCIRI
T8 sequence (Q01973 30-937 limits assumed): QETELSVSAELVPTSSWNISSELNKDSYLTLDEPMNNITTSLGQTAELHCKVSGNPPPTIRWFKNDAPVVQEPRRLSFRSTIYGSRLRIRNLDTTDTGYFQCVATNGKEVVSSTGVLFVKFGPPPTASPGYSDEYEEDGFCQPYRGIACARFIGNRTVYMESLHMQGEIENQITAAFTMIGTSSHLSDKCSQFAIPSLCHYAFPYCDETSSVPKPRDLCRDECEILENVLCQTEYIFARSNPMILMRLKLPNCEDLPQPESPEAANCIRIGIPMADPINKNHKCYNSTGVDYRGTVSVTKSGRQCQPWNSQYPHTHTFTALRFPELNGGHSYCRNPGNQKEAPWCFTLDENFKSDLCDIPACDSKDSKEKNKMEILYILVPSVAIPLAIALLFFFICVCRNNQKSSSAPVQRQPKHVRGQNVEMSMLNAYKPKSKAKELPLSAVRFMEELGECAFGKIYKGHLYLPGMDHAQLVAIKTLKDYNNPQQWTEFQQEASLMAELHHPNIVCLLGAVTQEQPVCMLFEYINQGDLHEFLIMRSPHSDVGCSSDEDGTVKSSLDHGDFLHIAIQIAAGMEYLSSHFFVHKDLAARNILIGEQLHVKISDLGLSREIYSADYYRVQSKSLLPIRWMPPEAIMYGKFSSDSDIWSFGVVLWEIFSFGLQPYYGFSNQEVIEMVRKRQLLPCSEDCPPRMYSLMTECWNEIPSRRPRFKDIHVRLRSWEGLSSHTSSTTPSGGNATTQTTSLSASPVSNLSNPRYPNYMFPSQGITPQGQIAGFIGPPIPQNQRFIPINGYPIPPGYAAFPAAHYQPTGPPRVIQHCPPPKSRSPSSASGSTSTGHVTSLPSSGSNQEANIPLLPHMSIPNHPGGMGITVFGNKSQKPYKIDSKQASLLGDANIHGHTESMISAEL
T1 sequence (Q01973 30-937 limits assumed): as above
T11 sequence (Q01973 other isoform, or with tags, fused parts or gaps limits assumed): as the sequence (Q01973 30-406) above, with I19Q counted along it
T10 sequence (Q01973 165-299 I254V/Q261H): as the sequence (Q01973 165-299) above, with I90V, Q97H counted along it
Chain of Q(261)H mutation (Q01973 165-299 Q261H limits assumed): as the sequence (Q01973 165-299) above, with Q97H counted along it

B1: Clone V chimeric ROR1 antibody (antibody, V domains shown)
VH: EVQLVESGGGLVQPGRSLKLSCAASGFSFSNYGMHWIRQAPTKGLEWVASISPTGGNTYYRDSVKGRFTISRDNTKSTLYLQMDSLRSEDTATYYCATDDLYYSGPFAYWGQGTLVTVSS
VL: DIKMTQSPSFLSASVGDRVTINCKASQNITRFLNWYQQELGEAPTLLIYNTNNLQTGIPSRFSGSGSGTDFTLTISSLQPEDVATYFCLQHGSRPRTFGGGTKLELK
binding result [1]: binds
binding result [2]: binds
binding result [3]: no binding
binding result [4]: binds
binding result [5]: no binding
binding result [6]: no binding
binding result [7]: no binding
binding result [8]: binds

B2: Clone Mu chimeric ROR1 antibody (antibody, V domains shown)
VH: QVQLQQSGAELVKPGSSVRISCKASGYTITSYDMHWIKQQPGNGLEGIGWIHPGNGKIKYNQKFNGKATLTVDKSSSTAYMQLSSLTSEDSAVYFCARGTTRVFPWFAYWGQGTLVTVSS
VL: QFTLTQPKSVSGSLRSTITIPCERSSGDIGDNYVSWYQQHLGRPPINVIYADDQRPSEVSDRFSGSIDSSSNSASLTITNLQMDDEADYFCQSFDSNFDIPVFGGGTKLTVL
binding result [2]: binds
binding result [3]: no binding
binding result [4]: binds
binding result [5]: no binding
binding result [6]: binds
binding result [7]: no binding

B3: Clone F chimeric ROR1 antibody (antibody, V domains shown)
VH: EVQLVESGGGLVQPGRSLKLSCAASGFIFSEHNMAWVRQAPKKGLEWVATISDDGRNTYYRDSMRGRFTISRENARSTLYLQLDSLRSEDTATYYCASHRYNLFDSWGQGVMVTVSS
VL: DIQMTQSPSFLSASVGDRVTINCKASQNIDRYLNWYQQKLGEAPKRLLYNTNKLQTGIPSRFSGSGSATDFTLTISSLQPEDFATYFCLQYNSLPLTFGSGTKLEIK
Kd [9]: 5.46 nM
koff [9]: 0.000836 s⁻¹
kon [9]: 153000 M⁻¹ s⁻¹
Q1 quadrant figure [10]: 85
binding result [5]: no binding
binding result [6]: no binding
binding result [11]: no binding
binding result [12]: no binding

B4: Clone A chimeric ROR1 antibody (antibody, V domains shown)
VH: QVQLQQSGTELVKPASSVRISCKASGYTLTTNYMHWIRQQPGNGLEWIGWIYPGNGNTKFNHKFDGRTTLTADKSSSIVYMQLSSLTSEDSAVYFCARSDFDYWGQGVMVTVSS
VL: DIQMTQSPSSMSASLGDRVTFTCQASQDIGNNLIWFQQKPGKSPRPLMYFATSLANGVPSRFSGSRSGSDYSLTISSLESEDLADYHCLQYREYPLTFGSGTKLDLK
notes: also called SA1
Kd [9]: 1.81 nM
koff [9]: 0.00104 s⁻¹
kon [9]: 577000 M⁻¹ s⁻¹
binding result [13]: no binding
binding result [14]: no binding
binding result [3]: no binding
binding result [5]: no binding
binding result [7]: no binding

Reference: patent publication US20230220073A1 (UCL BUSINESS, published 2023)
